Experimental data from patent US20240392003A1 (NUMAB THERAPEUTICS, published 2024).
Read-outs that look alike come from different tables or passages of the source.

How the values were obtained:
[1] = target: T1, human ROR1 expressed on cells (human, UniProt Q01973 30-937); assay: flow cytometry, MDA-MB-231 cells, 1 mg/ml hSA
T1 construct: whole, on cells; One molecule for cell-surface ROR1 on all cell lines; the cell line is named under assay; also called hROR1; plasma membrane human ROR1
Method: After incubation at 4° C. for 1 h in presence of 1 mg/ml of human serum albumin (hSA), plates were washed and incubated with specific detection antibodies.
The binding of MATCH4 molecules to plasma membrane-based human ROR1 was assessed by flow cytometry. The calculated EC₅₀, rel.

[2] = target: T2, recombinant human CD3 epsilon extra-cellular domain protein (His-Tag, SinoBiological) (human, UniProt P07766 23-126); assay: SPR; hCD3ε immobilized, two-state fit (Ka1)
T2 construct: extracellular domain; Bought; also called hCD3ε; human CD3ε; not shown: His tag

[3] = target: T2, recombinant human CD3 epsilon …; assay: SPR; hCD3ε immobilized, two-state fit (kd1)
Method: (§1) Binding kinetics (including affinity) of the four MATCH4 molecules to recombinant human CD3 epsilon extra-cellular domain protein (hCD3ε; His-Tag, SinoBiological) were determined by SPR analysis on a T200 device (Biacore, Cytiva). Recombinant hCD3ε molecules were covalently immobilized to a carboxymethylated dextran surface (CM5 sensorchip; Biacore, Cytiva) and a titration series of each MATCH4 molecule was injected as analyte. After each analyte injection-cycle, every flow channel on the sensor chip was regenerated (Glycine, pH 2.0 and 3 M MgCl₂), and a new concentration of MATCH4 molecule was injected. […] The apparent dissociation (kd1) and association (kₐ₁) rate constants, the second reaction constants (kₐ₂ and kd2) and the apparent dissociation equilibrium constant (KD) were calculated with the Biacore analysis software (Biacore Evaluation software Version 3.2, Cytiva) using a two-state binding model, and the quality of the fits was monitored based on relative Chi2. The binding level was calculated as the maximum stability binding achieved normalized to the theoretical Rmax.

[4] = target: T3, human ROR1 (Peprotech 160-054) (human, UniProt Q01973 30-406); assay: SPR; MATCH4 captured, hROR1 analyte (Affinity)
T3 construct: Bought, used as analyte; also called hROR1; recombinant human ROR1 protein
Method: Binding affinity without avidity was determined by using a proprietary anti-framework rabbit IgG (rlgG21-57-20-B11) immobilized to a carboxymethylated dextran surface (CM5 sensorchip; Biacore, Cytiva) to capture the MATCH4 molecules on the surface. A titration series of human ROR1 (Peprotech 160-054) molecule was injected as analyte. After each capture-analyte injection cycle, every flow channel on the sensor chip was regenerated (3 M MgCl₂), and a MATCH4 molecule was captured again followed by a different concentration of human ROR1. The binding kinetics to human ROR1 were measured using a multi-cycle kinetic assay, with ten analyte concentrations ranging from 0.088 to 90 nM, 1:2 diluted in running buffer (HEPES buffered saline, 0.05% Tween-20, pH 7.5; Bioconcept).
For both assays, the apparent dissociation (kd) and association (kₐ) rate constants and the apparent dissociation equilibrium constant (KD) were calculated with the Biacore analysis software (Biacore Evaluation software Version 3.2, Cytiva) using a one-to-one Langmuir binding model and quality of the fits was monitored based on Chi2 and U-value, which are measures for the quality of the curve fitting. The binding level was calculated as the maximum stability binding achieved normalized to the theoretical Rmax.

[5] = target: T4, recombinant human ROR1 protein (Fc-Tag, Acro Biosystems RO1-H5250) (human, UniProt Q01973 30-406); assay: SPR; hROR1-Fc immobilized (Avidity)
T4 construct: Bought; also called hROR1; recombinant human ROR1 ECD; not shown: Fc tag

[6] = target: T1, human ROR1 expressed on cells; assay: cell-based or functional assay
[7] = target: T1, human ROR1 expressed on cells; assay: flow cytometry, JIMT-1 cells (ROR1-positive)
[8] = target: T1, human ROR1 expressed on cells; assay: cell-based or functional assay; remark: listed apart in the source
[9] = target: T2, recombinant human CD3 epsilon …; assay: SPR; hCD3ε immobilized, two-state fit
Method: as §1

[10] = target: T1, human ROR1 expressed on cells; assay: cell-based or functional assay; remark: listed apart in the source
[11] = target: T1, human ROR1 expressed on cells; assay: flow cytometry, JIMT-1 cells (ROR1-positive); remark: listed apart in the source

B1: PRO2590 (bispecific antibody)
chain 1: DVQMTQSPSSLSASVGDRVTITCRASENIYSGLAWYQQKPGKPPKLLIYRASTLASGVSSRFSGSGSGTDFTLTISSLQPEDFATYYCQGGYYSSSSTYIAFGCGTKVTVLGGGGGSGGGGSGGGGSGGGGSQSQVVESGGGLVQPGGSLRLSCAVSGFDLSSYAVSWVRQAPGKCLEWIGIIYPRANTYYASWAKGRFTISKDNSKNTVYLQMNSLRAEDTAVYFCARDRYDSGAYLYTTYFNLWGQGTLVTVSSGGGGSGGGGSAFELTQSPSSLSASVGDRVTITCQASESINSRLAWYQQKPGQPPKLLIYDASDLTSGVPSRFSGSGSGTDFTLTISSLQPEDFATYYCQGYGGSSTTTFGCGTKLTVLGGGSGGSDIQMTQSPSSLSASVGDRVTITCQSSQSVFSNNYLAWFQQKPGQSPKRLIYSASTLASGVPSRFSGSGSGTDFTLTISSLQPEDFATYYCLGSYACSSADCYVFGTGTKVTVLG
chain 2: DVQMTQSPSSLSASVGDRVTITCRASENIYSGLAWYQQKPGKPPKLLIYRASTLASGVSSRFSGSGSGTDFTLTISSLQPEDFATYYCQGGYYSSSSTYIAFGCGTKVTVLGGGGGSGGGGSGGGGSGGGGSQSQVVESGGGLVQPGGSLRLSCAVSGFDLSSYAVSWVRQAPGKCLEWIGIIYPRANTYYASWAKGRFTISKDNSKNTVYLQMNSLRAEDTAVYFCARDRYDSGAYLYTTYFNLWGQGTLVTVSSGGGGSGGGGSEVQLVESGGGLVQPGGSLRLSCAASGFSLSSYDMSWVRQAPGKGLAWIGASYASGPTYYASWAKGRFTISRDNSKNTVYLQMNSLRAEDTATYFCARGGWTGTSHSNIWGQGTLVTVSSGGGSGGGSGGGSGEVQLVESGGGLVQPGGSLRLSCAASGFSLSSYAMNWVRQAPGKCLEWIGHINAGDIAYYATWAKGRFTISRDNSKNTVYLQMNSLRAEDTAVYFCARGAGGFSTGPFKLWGQGTLVTVSS
notes: heterodimeric MATCH4, bivalent for ROR1, monovalent for CD3 and hSA; also called MATCH4 with 55-38-D07-sc06 / 19-04-A10-sc06 / 28-21-D09-sc04 / 55-38-D07-sc06
For B1, the EC50 [1] was 1.23 nM, the “Rel. maximum binding (MFIMATCH4/MFIPRO2213)” value [1] was 2.76 and the “rel. EC50 (EC50, PRO2213/EC50, MATCH4)” value [1] was 0.56. It also gave a kon [2] of 450000 M⁻¹ s⁻¹, a koff [3] of 0.0058 s⁻¹ and a Kd [4] of 2.9 nM. It also gave a koff [4] of 0.00017 s⁻¹, a kon [4] of 59000 M⁻¹ s⁻¹ and a Kd [5] of 0.136 nM. For the same binder, the koff [5] was 6.15e-05 s⁻¹, the kon [5] was 453000 M⁻¹ s⁻¹ and the “Avg. % max. CD8 T cell act. (JIMT-1)” value [6] was 22.5%. For the same binder, the “Avg. % max. CD8 T cell act. (MDA-MB-231)” value [6] was 68.8%, the “Avg. % max. CD8 T cell act. (SKOV3)” value [6] was 63.7% and the “Avg. EC50 (nM) CD8 T cell act. (JIMT-1)” value [6] was 0.09 nM. For the same binder, the “Avg. EC50 (nM) CD8 T cell act. (MDA-MB-231)” value [6] was 0.013 nM, the “Avg. EC50 (nM) CD8 T cell act. (SKOV3)” value [6] was 0.034 nM and the “EC50 (read off the curve)” value [7] was 1 to 2 nM. The “Avg. % max. CD4 T cell act. (JIMT-1)” value [8] was 35.3%, the “Avg. % max. CD4 T cell act. (MDA-MB-231)” value [8] was 79.3% and the “Avg. % max. CD4 T cell act. (SKOV3)” value [8] was 78.3%. The “Avg. EC50 (nM) CD4 T cell act. (JIMT-1)” value [8] was 0.11 nM, the “Avg. EC50 (nM) CD4 T cell act. (MDA-MB-231)” value [8] was 0.007 nM and the “Avg. EC50 (nM) CD4 T cell act. (SKOV3)” value [8] was 0.02 nM. For the same binder, the Ka2 [9] was 0.0055 s⁻¹, the Kd [9] was 5.7 nM and the Kd2 [9] was 0.0043 s⁻¹. The “Avg. % max. lysis (JIMT-1)” value [10] was 38.6%, the “Avg. % max. lysis (MDA-MB-231)” value [10] was 52.2% and the “Avg. % max. lysis (SKOV3)” value [10] was 51.8%. The “Avg. EC50 (nM) CD8 T cell act. (MDA-MB-231)” value [10] was 0.013 nM, the “Avg. EC50 (nM) CD8 T cell act. (SKOV3)” value [10] was 0.034 nM and the “Avg. EC50 (nM) Cytotoxicity (JIMT-1)” value [10] was 0.13 nM. For the same binder, the “Avg. EC50 (nM) Cytotoxicity (MDA-MB-231)” value [10] was 0.016 nM and the “Avg. EC50 (nM) Cytotoxicity (SKOV3)” value [10] was 0.049 nM.

B2: PRO2591 (bispecific antibody)
chain 1: AQQLTQSPSSLSASVGDRVTITCQASQNVWNNNYLSWFQQKPGKPPKLLIVTASTLASGVSSRFSGSGSGTDFTLTISSLQPEDFATYYCAGGFSGEIRAFGTGTKVTVLGGGGGSGGGGSGGGGSGGGGSQSQLVESGGGLVQPGGSLRLSCAVSGIDLSRNAMSWVRQAPGKGLEWIGIILTSGSTYYASWAKGRFTISKTSTTLDLQMNSLRAEDTAVYFCVRGIASSSLKSFWGQGTLVTVSSGGGGSGGGGSAFELTQSPSSLSASVGDRVTITCQASESINSRLAWYQQKPGQPPKLLIYDASDLTSGVPSRFSGSGSGTDFTLTISSLQPEDFATYYCQGYGGSSTTTFGCGTKLTVLGGGSGGSDIQMTQSPSSLSASVGDRVTITCQSSQSVFSNNYLAWFQQKPGQSPKRLIYSASTLASGVPSRFSGSGSGTDFTLTISSLQPEDFATYYCLGSYACSSADCYVFGTGTKVTVLG
chain 2: AQQLTQSPSSLSASVGDRVTITCQASQNVWNNNYLSWFQQKPGKPPKLLIVTASTLASGVSSRFSGSGSGTDFTLTISSLQPEDFATYYCAGGFSGEIRAFGTGTKVTVLGGGGGSGGGGSGGGGSGGGGSQSQLVESGGGLVQPGGSLRLSCAVSGIDLSRNAMSWVRQAPGKGLEWIGIILTSGSTYYASWAKGRFTISKTSTTLDLQMNSLRAEDTAVYFCVRGIASSSLKSFWGQGTLVTVSSGGGGSGGGGSEVQLVESGGGLVQPGGSLRLSCAASGFSLSSYDMSWVRQAPGKGLAWIGASYASGPTYYASWAKGRFTISRDNSKNTVYLQMNSLRAEDTATYFCARGGWTGTSHSNIWGQGTLVTVSSGGGSGGGSGGGSGEVQLVESGGGLVQPGGSLRLSCAASGFSLSSYAMNWVRQAPGKCLEWIGHINAGDIAYYATWAKGRFTISRDNSKNTVYLQMNSLRAEDTAVYFCARGAGGFSTGPFKLWGQGTLVTVSS
notes: heterodimeric MATCH4, bivalent for ROR1, monovalent for CD3 and hSA; also called MATCH4 with 55-39-G02-sc03 / 19-04-A10-sc06 / 28-21-D09-sc04 / 55-39-G02-sc03
In the case of B2, the EC50 [1] is reported as 0.28 nM, the “Rel. maximum binding (MFIMATCH4/MFIPRO2213)” value [1] is reported as 2.21 and the “rel. EC50 (EC50, PRO2213/EC50, MATCH4)” value [1] is reported as 2.45. The kon [2] was 420000 M⁻¹ s⁻¹, the koff [3] was 0.00423 s⁻¹ and the Kd [4] was 3.2 nM. The koff [4] was 0.00034 s⁻¹, the kon [4] was 110000 M⁻¹ s⁻¹ and the Kd [5] was 0.0227 nM. For the same binder, the koff [5] was 4.1e-05 s⁻¹, the kon [5] was 1.81e+06 M⁻¹ s⁻¹ and the “Avg. % max. CD8 T cell act. (JIMT-1)” value [6] was 20.3%. The “Avg. % max. CD8 T cell act. (MDA-MB-231)” value [6] was 67.5%, the “Avg. % max. CD8 T cell act. (SKOV3)” value [6] was 62.7% and the “Avg. EC50 (nM) CD8 T cell act. (JIMT-1)” value [6] was 4.6 nM. The “Avg. EC50 (nM) CD8 T cell act. (MDA-MB-231)” value [6] was 0.01 nM, the “Avg. EC50 (nM) CD8 T cell act. (SKOV3)” value [6] was 0.68 nM and the “EC50 (read off the curve)” value [11] was roughly 0.5 nM. For the same binder, the “Avg. % max. CD4 T cell act. (JIMT-1)” value [8] was 30.5%, the “Avg. % max. CD4 T cell act. (MDA-MB-231)” value [8] was 80.3% and the “Avg. % max. CD4 T cell act. (SKOV3)” value [8] was 78.7%. For the same binder, the “Avg. EC50 (nM) CD4 T cell act. (JIMT-1)” value [8] was 3.9 nM, the “Avg. EC50 (nM) CD4 T cell act. (MDA-MB-231)” value [8] was 0.005 nM and the “Avg. EC50 (nM) CD4 T cell act. (SKOV3)” value [8] was 0.38 nM. It also gave a Ka2 [9] of 0.0027 s⁻¹, a Kd [9] of 4.7 nM and a Kd2 [9] of 0.0024 s⁻¹. The “Avg. % max. lysis (JIMT-1)” value [10] was 34.5%, the “Avg. % max. lysis (MDA-MB-231)” value [10] was 47.2% and the “Avg. % max. lysis (SKOV3)” value [10] was 58.7%. The “Avg. EC50 (nM) CD8 T cell act. (MDA-MB-231)” value [10] was 0.01 nM, the “Avg. EC50 (nM) CD8 T cell act. (SKOV3)” value [10] was 0.68 nM and the “Avg. EC50 (nM) Cytotoxicity (JIMT-1)” value [10] was 2.4 nM. For the same binder, the “Avg. EC50 (nM) Cytotoxicity (MDA-MB-231)” value [10] was 0.011 nM and the “Avg. EC50 (nM) Cytotoxicity (SKOV3)” value [10] was 3.5 nM.
